The record followed here is patent US20210238260A1.

Experiment [1] has as its target plasma purified human antithrombin III (AT-III), in complex with unfractionated heparin (UFH) (human) (UniProt P01008). Put plainly: K0.5: AT-III conc. (with UFH) for 50% inhibition of FIXa cleavage of Mesyl-D-CHG-Gly-Arg-AMC.
Experiment [2] concerns the target Factor VIIIa (recombinant FVIII, Kogenate FS, activated with alpha-thrombin) (UniProt P00451). Put plainly: apparent functional KD (KD-app): FXa generation by FIXa with FVIIIa titrated, PC/PS vesicles, saturating FX, fluorogenic Spectrafluor FXa.
The target of experiment [3] is FIXa D85N/D104N/K106S/I251S (human) (UniProt P00740). The experiment in a line: cell-based or functional assay.
A further experiment concerns the target FIXa R318E (human) (UniProt P00740). The experiment in a line: cell-based or functional assay.
The next experiment addresses FIXa R312Y (human) (UniProt P00740). The experiment in a line: cell-based or functional assay.
Another experiment has as its target FIXa E239N (human) (UniProt P00740). The experiment in a line: cell-based or functional assay.
A further experiment deals with FIXa R318N/A320S (human) (UniProt P00740). Put plainly: cell-based or functional assay.
The target in the next experiment is FIXa T241N/H243S (human) (UniProt P00740). The experiment in a line: cell-based or functional assay.
A further experiment has as its target FIXa F314N/H315S (human) (UniProt P00740). The experiment in a line: cell-based or functional assay.
In the next experiment the target is FIXa K413N (human) (UniProt P00740). Put plainly: cell-based or functional assay.
In the next experiment the target is FIXa N260S (human) (UniProt P00740). The experiment in a line: cell-based or functional assay.
Experiment [4] concerns the target FIXa D104N/K106S/Y155F/K247N/N249S (human) (UniProt P00740). Put plainly: cell-based or functional assay.
For another experiment, the target named is FIXa K400E/R403E (human) (UniProt P00740). Put plainly: cell-based or functional assay.
Experiment [5] has as its target FIXa D104N/K106S/Y155F/N260S (human) (UniProt P00740). Put plainly: cell-based or functional assay.
A further experiment addresses FIXa R318Y (human) (UniProt P00740). Put plainly: cell-based or functional assay.
A further experiment has as its target FIXa R403A (human) (UniProt P00740). The experiment in a line: cell-based or functional assay.
The target in another experiment is FIXa Y284N (human) (UniProt P00740). The experiment in a line: cell-based or functional assay.
In another experiment the target is FIXa D203M (human) (UniProt P00740). Put plainly: cell-based or functional assay.
Experiment [6] deals with FIXa Y155F/K247N/N249S (human) (UniProt P00740). The experiment in a line: cell-based or functional assay.
Experiment [7] has as its target FIXa A103N/N105S/K247N/N249S (human) (UniProt P00740). The experiment in a line: cell-based or functional assay.
Experiment [8] has as its target FIXa D104N/K106S/N260S (human) (UniProt P00740). Put plainly: cell-based or functional assay.
In another experiment the target is FIXa D203Y (human) (UniProt P00740). The experiment in a line: cell-based or functional assay.
The next experiment deals with FIXa A204M (human) (UniProt P00740). The experiment in a line: cell-based or functional assay.
In a further experiment the target is FIXa Y155F/N260S (human) (UniProt P00740). Put plainly: cell-based or functional assay.
The next experiment concerns the target FIXa E410N (human) (UniProt P00740). Put plainly: cell-based or functional assay.
A further experiment has as its target FIXa V202M (human) (UniProt P00740). The experiment in a line: cell-based or functional assay.
For experiment [9], the target named is FIXa A103N/N105S/I251S (human) (UniProt P00740). The experiment in a line: cell-based or functional assay.
A further experiment deals with FIXa K400A/R403A (human) (UniProt P00740). Put plainly: cell-based or functional assay.
For a further experiment, the target named is FIXa R318A (human) (UniProt P00740). Put plainly: cell-based or functional assay.
Experiment [10] addresses antithrombin III (plasma purified human AT-III, Molecular Innovations) (human) (UniProt P01008). Put plainly: AT-III/UFH inhibition of FIXa cleavage of Mesyl-D-CHG-Gly-Arg-AMC; K0.5 = AT-III conc. for 50% inhibition (AT-III varied).

Sequence of Factor VIIIa (recombinant FVIII, Kogenate FS, activated with alpha-thrombin) (P00451 other isoform, or with tags, fused parts or gaps limits assumed): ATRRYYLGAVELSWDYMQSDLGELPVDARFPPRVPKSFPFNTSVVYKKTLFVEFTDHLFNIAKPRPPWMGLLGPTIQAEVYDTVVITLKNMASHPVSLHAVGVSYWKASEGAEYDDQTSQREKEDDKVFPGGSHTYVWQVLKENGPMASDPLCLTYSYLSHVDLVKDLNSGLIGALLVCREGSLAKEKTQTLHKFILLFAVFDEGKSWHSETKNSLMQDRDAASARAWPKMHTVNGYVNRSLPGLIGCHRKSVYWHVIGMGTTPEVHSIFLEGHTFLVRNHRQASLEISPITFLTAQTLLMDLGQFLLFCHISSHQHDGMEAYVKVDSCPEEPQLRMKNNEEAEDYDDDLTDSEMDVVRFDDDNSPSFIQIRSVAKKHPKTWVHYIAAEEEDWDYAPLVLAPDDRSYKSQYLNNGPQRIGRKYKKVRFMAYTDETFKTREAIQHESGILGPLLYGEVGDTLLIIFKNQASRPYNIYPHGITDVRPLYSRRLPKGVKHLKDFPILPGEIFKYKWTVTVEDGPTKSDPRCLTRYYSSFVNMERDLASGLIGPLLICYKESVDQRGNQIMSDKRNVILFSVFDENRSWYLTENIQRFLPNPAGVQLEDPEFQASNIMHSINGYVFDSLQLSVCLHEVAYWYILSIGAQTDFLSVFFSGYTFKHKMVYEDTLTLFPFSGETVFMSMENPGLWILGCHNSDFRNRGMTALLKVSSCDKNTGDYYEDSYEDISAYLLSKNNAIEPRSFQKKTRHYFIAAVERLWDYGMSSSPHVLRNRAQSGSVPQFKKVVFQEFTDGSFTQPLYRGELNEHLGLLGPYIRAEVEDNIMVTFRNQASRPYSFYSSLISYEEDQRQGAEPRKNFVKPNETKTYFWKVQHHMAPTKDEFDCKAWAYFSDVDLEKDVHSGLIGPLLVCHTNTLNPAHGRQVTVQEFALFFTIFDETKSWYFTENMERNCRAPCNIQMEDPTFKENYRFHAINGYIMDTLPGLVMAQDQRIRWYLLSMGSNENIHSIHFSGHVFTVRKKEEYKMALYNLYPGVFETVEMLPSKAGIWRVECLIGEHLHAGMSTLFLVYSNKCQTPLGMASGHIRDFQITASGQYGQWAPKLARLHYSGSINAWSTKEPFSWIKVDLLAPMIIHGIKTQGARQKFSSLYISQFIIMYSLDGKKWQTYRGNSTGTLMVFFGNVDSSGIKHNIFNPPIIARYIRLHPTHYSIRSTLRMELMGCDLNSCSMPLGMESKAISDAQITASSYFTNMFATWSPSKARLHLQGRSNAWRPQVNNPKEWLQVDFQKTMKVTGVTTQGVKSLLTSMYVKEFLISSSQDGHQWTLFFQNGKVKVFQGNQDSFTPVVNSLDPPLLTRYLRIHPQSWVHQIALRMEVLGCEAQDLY

The substance “Plasma Purified FIXa (from UniProt P00740 47-191; P00740 227-461) (enzyme)” came in with a half-inhibitory concentration (IC50) in experiment [1] of 30 nM. In [2], the Kd came to 102 nM.

In the case of “plasma purified human AT-III (antithrombin III), in complex with full-length unfractionated heparin (from UniProt P01008 33-464)”, the K0.5 (nM), inhibition of FIXa by AT-III/UFH was 28 nM in experiment [3]; over 10000 nM with FIXa R318E (human); 2500 nM with FIXa R312Y (human); 132 nM in the experiment with FIXa E239N (human); over 999 nM with FIXa R318N/A320S (human); 21 nM in the experiment with FIXa T241N/H243S (human). The K0.5 (nM), inhibition of FIXa by AT-III/UFH with FIXa F314N/H315S (human) was 104 nM; in the experiment with FIXa K413N (human), 27 nM; with FIXa N260S (human), 312 nM; in [4] it was 27 nM; with FIXa K400E/R403E (human), over 999 nM; in [5], 292 nM. Moreover, the K0.5 (nM), inhibition of FIXa by AT-III/UFH in the experiment with FIXa R318Y (human) was determined as 1980 nM; with FIXa R403A (human) it was 190 nM; with FIXa Y284N (human), 41 nM; with FIXa D203M (human), 11 nM; in [6], 13 nM; in experiment [7] it was 53 nM. The K0.5 (nM), inhibition of FIXa by AT-III/UFH in experiment [8] was found to be 228 nM; with FIXa D203Y (human), 16 nM; with FIXa A204M (human) it was 29 nM; with FIXa Y155F/N260S (human) it was 77 nM; in the experiment with FIXa E410N (human) it was 9 nM; with FIXa V202M (human) it was 14 nM. The figures for the K0.5 (nM), inhibition of FIXa by AT-III/UFH (in experiment [9]; with FIXa K400A/R403A (human); with FIXa R318A (human)) were 42 nM, over 999 nM and 4140 nM, respectively.

Substance “Plasma Purified FIXa (Haematologic Technologies, Inc.) (from UniProt P00740 47-191; P00740 227-461) (enzyme)” showed an IC50 in [10] of 30 nM.
